This note sets out measurements from PMC1475753.

For data set [1], the target named is T1, φ29 DNA polymerase K538A (bacteriophage φ29, UniProt P03680 1-575, K538A).
T1 sequence: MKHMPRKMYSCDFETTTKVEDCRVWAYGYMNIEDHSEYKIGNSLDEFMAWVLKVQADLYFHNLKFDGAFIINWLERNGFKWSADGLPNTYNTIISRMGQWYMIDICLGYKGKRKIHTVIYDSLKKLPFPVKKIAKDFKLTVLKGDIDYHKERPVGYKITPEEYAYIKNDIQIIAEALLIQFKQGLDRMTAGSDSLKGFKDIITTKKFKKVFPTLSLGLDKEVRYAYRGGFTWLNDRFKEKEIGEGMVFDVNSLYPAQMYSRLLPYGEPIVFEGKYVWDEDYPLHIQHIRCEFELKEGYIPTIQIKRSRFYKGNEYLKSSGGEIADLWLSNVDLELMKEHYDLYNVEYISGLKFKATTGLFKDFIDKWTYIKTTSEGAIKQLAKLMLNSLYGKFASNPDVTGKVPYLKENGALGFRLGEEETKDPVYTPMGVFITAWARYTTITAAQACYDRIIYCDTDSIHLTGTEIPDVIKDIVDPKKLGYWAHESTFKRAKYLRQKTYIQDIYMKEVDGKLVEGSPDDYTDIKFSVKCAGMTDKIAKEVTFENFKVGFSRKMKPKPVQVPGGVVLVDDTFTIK
The experiment in a line: EMSA. On the technique in general: In EMSA bound probe runs differently from free probe, usually more slowly.

For data set [2], the target named is T2, φ29 DNA polymerase T573A (bacteriophage φ29, UniProt P03680 1-575, T573A).
T2 sequence: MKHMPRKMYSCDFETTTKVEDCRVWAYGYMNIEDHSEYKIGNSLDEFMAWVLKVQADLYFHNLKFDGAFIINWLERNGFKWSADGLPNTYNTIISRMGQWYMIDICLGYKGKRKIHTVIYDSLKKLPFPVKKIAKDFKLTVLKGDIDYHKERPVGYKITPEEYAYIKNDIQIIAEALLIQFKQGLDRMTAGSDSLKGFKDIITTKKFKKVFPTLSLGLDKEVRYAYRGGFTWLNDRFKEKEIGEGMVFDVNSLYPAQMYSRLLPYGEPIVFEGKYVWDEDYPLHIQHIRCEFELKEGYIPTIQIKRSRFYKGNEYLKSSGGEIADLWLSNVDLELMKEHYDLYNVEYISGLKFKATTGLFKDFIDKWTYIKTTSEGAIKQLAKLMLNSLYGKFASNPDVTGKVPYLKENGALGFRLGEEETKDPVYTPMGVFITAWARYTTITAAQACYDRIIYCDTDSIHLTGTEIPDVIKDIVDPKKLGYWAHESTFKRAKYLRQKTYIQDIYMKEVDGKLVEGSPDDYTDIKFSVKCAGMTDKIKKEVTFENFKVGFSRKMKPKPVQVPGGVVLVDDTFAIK
The experiment in a line: EMSA.

B1: sp1/sp1c+6 (15/21mer) (dsDNA)
DNA 1: GATCACAGTGAGTAC
DNA 2: TCTATTGTACTCACTGTGATC
With B1, the binding result in data set [1] and in data set [2] was “no binding” throughout.
